Test results from article doi:10.1101/2024.03.20.585881 (bioRxiv, 2024).

Columns and labels:
3xFLAG-mScarlet-APC = 3xFLAG-mScarlet-APC (human (endogenous in HEK293), UniProt P25054 1-2843); assay: affinity purification with mass spectrometry
3xFLAG-eGFP-Axin1 = 3xFLAG-eGFP-Axin1 (UniProt O15169 1-862); assay: affinity purification with mass spectrometry
3xFLAG-eGFP-Axin1, sequence (O15169 whole entry): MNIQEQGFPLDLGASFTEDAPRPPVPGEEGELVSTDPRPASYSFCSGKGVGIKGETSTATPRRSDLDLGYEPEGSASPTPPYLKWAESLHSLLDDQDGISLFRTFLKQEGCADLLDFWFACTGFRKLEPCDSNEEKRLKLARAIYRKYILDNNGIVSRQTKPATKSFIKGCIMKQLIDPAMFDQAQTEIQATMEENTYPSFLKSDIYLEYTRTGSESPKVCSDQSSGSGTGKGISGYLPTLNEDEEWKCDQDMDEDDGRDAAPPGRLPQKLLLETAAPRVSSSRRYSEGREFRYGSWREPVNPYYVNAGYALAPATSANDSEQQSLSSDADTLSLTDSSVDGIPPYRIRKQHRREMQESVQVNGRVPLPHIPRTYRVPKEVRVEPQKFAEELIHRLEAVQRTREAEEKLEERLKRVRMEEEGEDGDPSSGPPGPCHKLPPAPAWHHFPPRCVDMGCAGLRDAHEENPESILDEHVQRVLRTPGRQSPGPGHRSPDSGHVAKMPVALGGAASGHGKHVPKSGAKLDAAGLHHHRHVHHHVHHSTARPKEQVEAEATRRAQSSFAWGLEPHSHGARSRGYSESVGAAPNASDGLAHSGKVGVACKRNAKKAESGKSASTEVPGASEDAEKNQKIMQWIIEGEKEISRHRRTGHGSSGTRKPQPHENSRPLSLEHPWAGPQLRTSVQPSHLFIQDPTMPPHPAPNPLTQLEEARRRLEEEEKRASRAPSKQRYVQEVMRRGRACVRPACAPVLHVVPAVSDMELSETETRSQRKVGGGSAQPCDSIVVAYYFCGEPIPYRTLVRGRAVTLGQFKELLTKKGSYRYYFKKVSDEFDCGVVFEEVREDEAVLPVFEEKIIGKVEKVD

3xFLAG-mScarlet-APC, sequence (P25054 whole entry): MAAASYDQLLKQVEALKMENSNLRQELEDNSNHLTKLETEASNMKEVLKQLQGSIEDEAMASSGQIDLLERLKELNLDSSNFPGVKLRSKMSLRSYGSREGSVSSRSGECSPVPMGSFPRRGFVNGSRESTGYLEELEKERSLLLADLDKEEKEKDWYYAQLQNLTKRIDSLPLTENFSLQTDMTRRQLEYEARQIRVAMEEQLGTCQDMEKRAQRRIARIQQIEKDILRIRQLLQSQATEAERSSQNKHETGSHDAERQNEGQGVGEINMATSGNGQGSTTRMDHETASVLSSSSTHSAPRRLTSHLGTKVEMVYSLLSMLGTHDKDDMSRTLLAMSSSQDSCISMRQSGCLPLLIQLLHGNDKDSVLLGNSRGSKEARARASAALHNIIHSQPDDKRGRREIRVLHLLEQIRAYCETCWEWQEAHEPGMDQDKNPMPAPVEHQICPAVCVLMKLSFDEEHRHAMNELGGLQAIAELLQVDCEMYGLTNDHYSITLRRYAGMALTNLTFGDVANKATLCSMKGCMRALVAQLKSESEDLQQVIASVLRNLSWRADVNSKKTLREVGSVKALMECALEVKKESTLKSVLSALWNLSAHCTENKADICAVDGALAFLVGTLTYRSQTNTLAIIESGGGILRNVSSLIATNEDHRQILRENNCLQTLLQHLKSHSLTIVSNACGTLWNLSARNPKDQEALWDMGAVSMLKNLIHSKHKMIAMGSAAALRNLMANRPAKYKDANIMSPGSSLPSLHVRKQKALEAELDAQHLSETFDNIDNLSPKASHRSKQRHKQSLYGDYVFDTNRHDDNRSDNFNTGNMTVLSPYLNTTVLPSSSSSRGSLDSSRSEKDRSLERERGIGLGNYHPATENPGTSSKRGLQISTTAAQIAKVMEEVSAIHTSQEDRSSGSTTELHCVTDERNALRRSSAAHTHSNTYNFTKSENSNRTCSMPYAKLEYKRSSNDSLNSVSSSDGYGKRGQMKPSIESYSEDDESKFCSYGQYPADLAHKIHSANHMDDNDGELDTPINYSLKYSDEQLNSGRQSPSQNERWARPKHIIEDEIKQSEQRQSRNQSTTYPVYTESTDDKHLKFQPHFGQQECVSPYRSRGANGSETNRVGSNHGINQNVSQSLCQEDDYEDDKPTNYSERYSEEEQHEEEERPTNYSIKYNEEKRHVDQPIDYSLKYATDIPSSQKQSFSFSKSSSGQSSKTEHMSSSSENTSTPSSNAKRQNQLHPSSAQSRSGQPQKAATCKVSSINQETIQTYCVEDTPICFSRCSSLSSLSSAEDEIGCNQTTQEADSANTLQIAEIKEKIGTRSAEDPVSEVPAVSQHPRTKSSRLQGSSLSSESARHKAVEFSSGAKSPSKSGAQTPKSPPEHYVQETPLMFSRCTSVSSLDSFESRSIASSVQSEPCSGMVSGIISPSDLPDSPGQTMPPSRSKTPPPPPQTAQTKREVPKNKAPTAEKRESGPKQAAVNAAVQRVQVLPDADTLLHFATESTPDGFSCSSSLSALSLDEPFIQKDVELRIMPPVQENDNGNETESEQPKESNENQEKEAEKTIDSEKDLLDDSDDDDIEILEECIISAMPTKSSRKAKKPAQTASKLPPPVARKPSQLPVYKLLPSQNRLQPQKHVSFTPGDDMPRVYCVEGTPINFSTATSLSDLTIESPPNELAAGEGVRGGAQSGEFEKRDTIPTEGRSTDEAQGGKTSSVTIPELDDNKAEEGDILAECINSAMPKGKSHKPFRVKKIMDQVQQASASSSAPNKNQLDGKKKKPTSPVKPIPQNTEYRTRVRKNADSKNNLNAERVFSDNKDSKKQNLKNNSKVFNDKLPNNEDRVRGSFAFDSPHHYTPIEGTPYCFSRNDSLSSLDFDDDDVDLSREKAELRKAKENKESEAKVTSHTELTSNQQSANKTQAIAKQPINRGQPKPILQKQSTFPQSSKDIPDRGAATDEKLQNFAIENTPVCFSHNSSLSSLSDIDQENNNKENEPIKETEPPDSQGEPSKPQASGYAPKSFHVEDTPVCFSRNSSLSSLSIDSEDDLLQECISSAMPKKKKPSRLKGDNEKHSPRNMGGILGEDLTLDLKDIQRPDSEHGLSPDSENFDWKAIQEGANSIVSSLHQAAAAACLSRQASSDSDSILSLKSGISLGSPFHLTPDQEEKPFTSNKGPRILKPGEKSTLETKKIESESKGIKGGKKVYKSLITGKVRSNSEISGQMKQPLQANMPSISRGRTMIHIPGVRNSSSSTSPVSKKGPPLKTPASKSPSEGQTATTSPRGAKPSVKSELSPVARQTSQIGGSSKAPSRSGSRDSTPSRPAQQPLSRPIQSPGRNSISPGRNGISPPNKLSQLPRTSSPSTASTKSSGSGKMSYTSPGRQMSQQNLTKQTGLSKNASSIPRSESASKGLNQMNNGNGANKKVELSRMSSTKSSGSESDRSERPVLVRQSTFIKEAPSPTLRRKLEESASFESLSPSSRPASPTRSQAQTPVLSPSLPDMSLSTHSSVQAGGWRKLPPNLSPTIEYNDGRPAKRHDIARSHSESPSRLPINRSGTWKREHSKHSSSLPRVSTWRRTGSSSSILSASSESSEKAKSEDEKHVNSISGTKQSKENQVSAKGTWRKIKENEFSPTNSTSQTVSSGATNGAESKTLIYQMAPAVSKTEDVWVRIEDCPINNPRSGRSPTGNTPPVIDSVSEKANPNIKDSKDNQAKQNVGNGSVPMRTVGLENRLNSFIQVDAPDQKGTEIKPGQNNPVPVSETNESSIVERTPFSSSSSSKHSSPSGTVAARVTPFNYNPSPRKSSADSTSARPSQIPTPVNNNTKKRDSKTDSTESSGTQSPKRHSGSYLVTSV

fold reduction of the interaction after puromycin (3xFLAG-mScarlet-APC) [fold] | fold decrease in binding after puromycin (3xFLAG-eGFP-Axin1) [fold] | Binder
~4 | ~10 | β-catenin (natural protein, human (endogenous in HEK293 and HeLa), UniProt P35222 1-781, looked up) MATQADLMELDMAMEPDRKAAVSHWQQQSYLDSGIHSGATTTAPSLSGKGNPEEEDVDTSQVLYEWEQGFSQSFTQEQVADIDGQYAMTRAQRVRAAMFPETLDEGMQIPSTQFDAAHPTNVQRLAEPSQMLKHAVVNLINYQDDAELATRAIPELTKLLNDEDQVVVNKAAVMVHQLSKKEASRHAIMRSPQMVSAIVRTMQNTNDVETARCTAGTLHNLSHHREGLLAIFKSGGIPALVKMLGSPVDSVLFYAITTLHNLLLHQEGAKMAVRLAGGLQKMVALLNKTNVKFLAITTDCLQILAYGNQESKLIILASGGPQALVNIMRTYTYEKLLWTTSRVLKVLSVCSSNKPAIVEAGGMQALGLHLTDPSQRLVQNCLWTLRNLSDAATKQEGMEGLLGTLVQLLGSDDINVVTCAAGILSNLTCNNYKNKMMVCQVGGIEALVRTVLRAGDREDITEPAICALRHLTSRHQEAEMAQNAVRLHYGLPVVVKLLHPPSHWPLIKATVGLIRNLALCPANHAPLREQGAIPRLVQLLVRAHQDTQRRTSMGGTQQQFVEGVRMEEIVEGCTGALHILARDVHNRIVIRGLNTIPLFVQLLYSPIENIQRVAAGVLCELAQDKEAAEAIEAEGATAPLTELLHSRNEGVATYAAAVLFRMSEDKPQDYKKRLSVELTSSLFRTEPMAWNETADLGLDIGAQGEPLGYRQDDPSYRSFHSGGYGQDALGMDPMMEHEMGGHHPGADYPVDGLPDLGHAQDLMDGLPPGDSNQLAWFDTDL
– | ~10 | α-catenin (natural protein, human (endogenous in HEK293 and HeLa), UniProt P35221 1-906, looked up) MTAVHAGNINFKWDPKSLEIRTLAVERLLEPLVTQVTTLVNTNSKGPSNKKRGRSKKAHVLAASVEQATENFLEKGDKIAKESQFLKEELVAAVEDVRKQGDLMKAAAGEFADDPCSSVKRGNMVRAARALLSAVTRLLILADMADVYKLLVQLKVVEDGILKLRNAGNEQDLGIQYKALKPEVDKLNIMAAKRQQELKDVGHRDQMAAARGILQKNVPILYTASQACLQHPDVAAYKANRDLIYKQLQQAVTGISNAAQATASDDASQHQGGGGGELAYALNNFDKQIIVDPLSFSEERFRPSLEERLESIISGAALMADSSCTRDDRRERIVAECNAVRQALQDLLSEYMGNAGRKERSDALNSAIDKMTKKTRDLRRQLRKAVMDHVSDSFLETNVPLLVLIEAAKNGNEKEVKEYAQVFREHANKLIEVANLACSISNNEEGVKLVRMSASQLEALCPQVINAALALAAKPQSKLAQENMDLFKEQWEKQVRVLTDAVDDITSIDDFLAVSENHILEDVNKCVIALQEKDVDGLDRTAGAIRGRAARVIHVVTSEMDNYEPGVYTEKVLEATKLLSNTVMPRFTEQVEAAVEALSSDPAQPMDENEFIDASRLVYDGIRDIRKAVLMIRTPEELDDSDFETEDFDVRSRTSVQTEDDQLIAGQSARAIMAQLPQEQKAKIAEQVASFQEEKSKLDAEVSKWDDSGNDIIVLAKQMCMIMMEMTDFTRGKGPLKNTSDVISAAKKIAEAGSRMDKLGRTIADHCPDSACKQDLLAYLQRIALYCHQLNICSKVKAEVQNLGGELVVSGVDSAMSLIQAAKNLMNAVVQTVKASYVASTKYQKSQGMASLNLPAVSWKMKAPEKKPLVKREKQDETQTKIKRASQKKHVNPVQALSEFKAMDSI
